The source of these data is paper PMC6172828.

For assay [1], the target named is human ATF7IP peptide, K16me3, C-terminal biotin (human). Put plainly: SPR; same chip and buffer, 25 °C; kinetics not fitted, KD by steady-state affinity analysis; for all tri-methylated peptides and LIG1 K126me2 G9a SET-domain in twofold dilutions from 200 µM. A general note: Surface plasmon resonance follows binding to a sensor surface in real time, without labels.

Assay [2] concerns the target histone H3 peptide, unmodified (K9me0), C-terminal biotin (human). The assay can be described thus: SPR; biotinylated peptides immobilised on streptavidin chip SA, Biacore T200, 25 °C, 10 mM HEPES pH 7.4, 150 mM NaCl; G9a SET-domain 1.5-fold dilutions from 20 or 10 µM; 1:1 binding model, KD calculated from kon and koff.
Assay [3] concerns the target human ATF7IP peptide, unmodified (K16me0), C-terminal biotin (human). Described as above.
The target in assay [4] is human ATF7IP peptide, K16me1, C-terminal biotin (human). The description is as above.
The target of assay [5] is human ATF7IP peptide, K16me2, C-terminal biotin (human). Described as above.
Assay [6] addresses histone H3 peptide, K9me2, C-terminal biotin (human). The description is as above.
For assay [7], the target named is histone H3 peptide, K9me1, C-terminal biotin (human). The description is as above.

Turning to “human G9a SET-domain (residues 913–1193) (from UniProt Q96KQ7 913-1193) (domain or fragment)”, the Kd in assay [1] is more than 1000 nM; in assay [2] it was 90 nM; in assay [3], 180 nM; in assay [4] it was 43 nM; in assay [5], 38 nM; in assay [6], 350 nM. Moreover, the Kd in assay [7] is 430 nM.

The term Kd denotes the equilibrium constant for the complex coming apart.
